Test results reported in article PMC3005221 (Biochemistry, 2010).
[ ]: non-standard residue; d: D form. The star is where a group is joined. FITC = O=C1OC2(c3ccc(O)cc3Oc3cc(O)ccc32)c2ccc(NC(=S)*)cc21; Abu = CC[C@H](N)C(=O)O; βAla = NCCC(=O)O

Columns and labels:
Test in all cases: fluorescence polarisation
[1] = molecular target: (His)6-tagged Ubp-M BUZ domain (UniProt Q9Y5T5 22-143)
Target sequence in this assay (Q9Y5T5 22-143): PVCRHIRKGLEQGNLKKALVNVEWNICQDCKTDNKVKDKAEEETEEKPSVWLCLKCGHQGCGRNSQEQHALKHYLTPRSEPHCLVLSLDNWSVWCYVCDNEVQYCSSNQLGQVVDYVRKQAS

[2] = molecular target: T1, HDAC6 BUZ domain (without GST tag) (UniProt Q9UBN7 1059-1215)
T1 sequence (looked up): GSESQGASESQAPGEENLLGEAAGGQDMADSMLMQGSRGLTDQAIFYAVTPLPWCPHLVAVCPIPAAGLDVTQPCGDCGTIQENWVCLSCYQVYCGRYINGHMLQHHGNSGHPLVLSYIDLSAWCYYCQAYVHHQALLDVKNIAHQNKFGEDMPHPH

GST-HDAC6 BUZ = GST-HDAC6 BUZ (UniProt Q9UBN7 1059-1215)
[3] = molecular target: (His)6-tagged Ubp-M BUZ domain (UniProt Q9Y5T5 22-143); remark: listed apart in the source
Target sequence in this assay (Q9Y5T5 whole entry, looked up, the tested form may be a part): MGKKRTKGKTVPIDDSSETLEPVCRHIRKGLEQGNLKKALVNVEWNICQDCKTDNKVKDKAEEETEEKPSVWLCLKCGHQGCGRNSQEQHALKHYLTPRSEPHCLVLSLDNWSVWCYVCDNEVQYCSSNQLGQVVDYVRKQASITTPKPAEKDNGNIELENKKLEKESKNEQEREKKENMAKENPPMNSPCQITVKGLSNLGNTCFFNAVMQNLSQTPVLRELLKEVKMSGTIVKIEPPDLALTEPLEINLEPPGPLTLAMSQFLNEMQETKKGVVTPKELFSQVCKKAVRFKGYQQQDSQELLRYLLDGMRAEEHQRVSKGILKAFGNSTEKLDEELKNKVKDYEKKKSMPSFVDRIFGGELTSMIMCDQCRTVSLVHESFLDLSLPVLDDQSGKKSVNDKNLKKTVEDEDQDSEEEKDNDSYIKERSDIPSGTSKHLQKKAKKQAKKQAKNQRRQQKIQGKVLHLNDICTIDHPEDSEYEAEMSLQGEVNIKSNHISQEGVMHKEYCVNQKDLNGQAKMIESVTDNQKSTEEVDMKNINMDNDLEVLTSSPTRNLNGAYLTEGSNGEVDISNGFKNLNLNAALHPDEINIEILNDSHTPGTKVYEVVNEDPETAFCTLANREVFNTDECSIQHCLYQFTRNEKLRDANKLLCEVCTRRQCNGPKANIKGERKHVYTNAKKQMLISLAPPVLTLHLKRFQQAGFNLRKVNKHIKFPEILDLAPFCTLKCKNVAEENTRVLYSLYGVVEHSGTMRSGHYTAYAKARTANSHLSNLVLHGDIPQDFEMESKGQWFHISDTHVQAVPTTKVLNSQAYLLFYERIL

Binder	Kd [1] [µM]	also measured
{FITC-βAla-βAla}-NALGG-OH (SMILES CC(C)C[C@H](NC(=O)[C@H](C)NC(=O)[C@H](CC(N)=O)NC(=O)CCNC(=O)CCNC(=S)Nc1ccc2c(c1)C(=O)OC21c2ccc(O)cc2Oc2cc(O)ccc21)C(=O)NCC(=O)NCC(=O)O) [FITC-β-Ala-β-Ala-NALGG]	33 ± 7	Kd [2]: 0.23 ± 0.02 µM
{FITC-βAla-βAla}-YGFGG-OH (SMILES O=C(O)CNC(=O)CNC(=O)[C@H](Cc1ccccc1)NC(=O)CNC(=O)[C@H](Cc1ccc(O)cc1)NC(=O)CCNC(=O)CCNC(=S)Nc1ccc2c(c1)C(=O)OC21c2ccc(O)cc2Oc2cc(O)ccc21) [FITC-β-Ala-β-Ala-YGFGG]	13 ± 3	–
{FITC-βAla-βAla}-LQDGF-OH (SMILES CC(C)C[C@H](NC(=O)CCNC(=O)CCNC(=S)Nc1ccc2c(c1)C(=O)OC21c2ccc(O)cc2Oc2cc(O)ccc21)C(=O)N[C@@H](CCC(N)=O)C(=O)N[C@@H](CC(=O)O)C(=O)NCC(=O)N[C@@H](Cc1ccccc1)C(=O)O) [FITC-β-Ala-β-Ala-LQDGF]	> 150	–
{FITC-βAla-βAla}-IAKGG-OH (SMILES CC[C@H](C)[C@H](NC(=O)CCNC(=O)CCNC(=S)Nc1ccc2c(c1)C(=O)OC21c2ccc(O)cc2Oc2cc(O)ccc21)C(=O)N[C@@H](C)C(=O)N[C@@H](CCCCN)C(=O)NCC(=O)NCC(=O)O) [FITC-β-Ala-β-Ala-IAKGG]	12 ± 3	–
{FITC-βAla-βAla}-Y[Abu]IGG-OH (SMILES CC[C@H](NC(=O)[C@H](Cc1ccc(O)cc1)NC(=O)CCNC(=O)CCNC(=S)Nc1ccc2c(c1)C(=O)OC21c2ccc(O)cc2Oc2cc(O)ccc21)C(=O)N[C@H](C(=O)NCC(=O)NCC(=O)O)[C@@H](C)CC) [FITC-β-Ala-β-Ala-YUIGG]	–	Kd (GST-HDAC6 BUZ): 1.3 ± 0.1 µM; Kd [3]: 12 ± 2 µM
{FITC-βAla-βAla}-RGMGG-OH (SMILES CSCC[C@H](NC(=O)CNC(=O)[C@H](CCCNC(=N)N)NC(=O)CCNC(=O)CCNC(=S)Nc1ccc2c(c1)C(=O)OC21c2ccc(O)cc2Oc2cc(O)ccc21)C(=O)NCC(=O)NCC(=O)O) [FITC-β-Ala-β-Ala-RGMGG]	17 ± 3	–
